Results on eight proteins are retold here after US20100015650.

The series has as its target T1, BRB1 tyrosine kinase substrate peptide.
T1 chain: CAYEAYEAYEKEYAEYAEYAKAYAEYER

B1: FAK (protein)
chain: LANSEKQGMRTHAVSVSETDDYAEIIDEEDTYTMPSTRDYEIQRERIELGRCIGEGQFGDVHQGIYMSPENPALAVAIKTCKNCTSDSVREKFLQEALTMRQFDHPHIVKLIGVITENPVWIIMELCTLGELRSFLQVRKYSLDLASLILYAYQLSTALAYLESKRFVHRDIAARNVLVSSNDCVKLGDFGLSRYMEDSTYYKASKGKLPIKWMAPESINFRRFTSASDVWMFGVCMWEILMHGVKPFQGVKNNDVIGRIENGERLPMPPNCPPTLYSLMTKCWAYDPSRRPRFTELKAQLSTILEEEKAQQEERMRMESRRQATVSWDSGGSDEAPPKPSRPGYPSPRSSEGFYPSPQHMVQTNHYQVSGYPGSHGITAMAGSIYPGQASLLDQTDSWNHRPQEIAMWQPNVEDSTVLDLRGIGQVLPTHLMEERLIRQQQEMEEDQRWLEKEERFLKPDVRLSRGSIDREDGSLQGPIGNQHIYQPVGKPDPAAPPKKPPRPGAPGHLGSLASLSSPADSYNEGVKLQPQEISPPPTANLDRSNDKVYENVTGLVKAVIEMSSKIQPAPPEEYVPMVKEVGLALRTLLATVDETIPLLPASTHREIEMAQKLLNSDLGELINKMKLAQQYVMTSLQQEYKKQMLTAAHALAVDAKNLLDVIDQARLKMLGQTRPH
In the case of B1, the Signal to Noise Ratio with BRB1 Peptide (TR-FRET kinase assay; kinase 3 nM) stood at 1.7.

B2: CTK (protein)
chain: MAGRGSLVSWRAFHGCDSAEELPRVSPRFLRAWHPPPVSARMPTRRWAPGTQCITKCEHTRPKPGELAFRKGDVVTILEACENKSWYRVKHHTSGQEGLLAAGALREREALSADPKLSLMPWFHGKISGQEAVQQLQPPEDGLFLVRESARHPGDYVLCVSFGRDVIHYRVLHRDGHLTIDEAVFFCNLMDMVEHYSKDKGAICTKLVRPKRKHGTKSAEEELARAGWLLNLQHLTLGAQIGEGEFGAVLQGEYLGQKVAVKNIKCDVTAQAFLDETAVMTKMQHENLVRLLGVILHQGLYIVMEHVSKGNLVNFLRTRGRALVNTAQLLQFSLHVAEGMEYLESKKLVHRDLAARNILVSEDLVAKVSDFGLAKAERKGLDSSRLPVKWTAPEALKHGKFTSKSDVWSFGVLLWEVFSYGRAPYPKMSLKEVSEAVEKGYRMEPPEGCPGPVHVLMSSCWEAEPARRPPFRKLAEKLARELRSAGAPASVSGQDADGSTSPRSQEP
Take B2: the Signal to Noise Ratio with BRB1 Peptide (TR-FRET kinase assay; kinase 20 nM) amounted to 2.5.

B3: JAK2 (protein)
chain: RIGALGFSGAFEDRDPTQFEERHLKFLQQLGKGNFGSVEMCRYDPLQDNTGEVVAVKKLQHSTEEHLRDFEREIEILKSLQHDNIVKYKGVCYSAGRRNLKLIMEYLPYGSLRDYLQKHKERIDHIKLLQYTSQICKGMEYLGTKRYIHRDLATRNILVENENRVKIGDFGLTKVLPQDKEYYKVKEPGESPIFWYAPESLTESKFSVASDVWSFGVVLYELFTYIEKSKSPPAEFMRMIGNDKQGQMIVFHLIELLKNNGRLPRPDGCPDEIYMIMTECWNNNVNQRPSFRDLALRVDQIRDNMAG
For the protein B3, the Signal to Noise Ratio with BRB1 Peptide (TR-FRET kinase assay; kinase 1 nM) was 35.5.

B4: JAK3 (protein)
chain: ALAPRDGLWNGAQLYACQDPTIFEERHLKYISQLGKGNFGSVELCRYDPLGDNTGALVAVKQLQHSGPDQQRDFQREIQILKALHSDFIVKYRGVSYGPGRQSLRLVMEYLPSGCLRDFLQRHRARLDASRLLLYSSQICKGMEYLGSRRCVHRDLAARNILVESEAHVKIADFGLAKLLPLDKDYYVVREPGQSPIFWYAPESLSDNIFSRQSDVWSFGVVLYELFTYCDKSCSPSAEFLRMMGCERDVPALCRLLELLEEGQRLPAPPACPAEVHELMKLCWAPSPQDRPSFSALGPQLDMLWSGSRGCETHAFTAHPEGKHHSLSFS
B4: the Signal to Noise ratio with BRB1 Peptide (TR-FRET kinase assay; kinase 0.5 nM) was determined as 16.1.

B5: ITK (protein)
chain: NNFILLEEQLIKKSQQKRRTSPSNFKVRFFVLTKASLAYFEDRHGKKRTLKGSIELSRIKCVEIVKSDISIPCHYKYPFQVVHDNYLLYVFAPDRESRQRWVLALKEETRNNNSLVPKYHPNFWMDGKWRCCSQLEKLATGCAQYDPTKNASKKPLPPTPEDNRRPLWEPEETVVIALYDYQTNDPQELALRRNEEYCLLDSSEIHWWRVQDRNGHEGYVPSSYLVEKSPNNLETYEWYNKSISRDKAEKLLLDTGKEGAFMVRDSRTAGTYTVSVFTKAVVSENNPCIKHYHIKETNDNPKRYYVAEKYVFDSIPLLINYHQHNGGGLVTRLRYPVCFGRQKAPVTAGLRYGKWVIDPSELTFVQEIGSGQFGLVHLGYWLNKDKVAIKTIREGAMSEEDFIEEAEVMMKLSHPKLVQLYGVCLEQAPICLVFEFMEHGCLSDYLRTQRGLFAAETLLGMCLDVCEGMAYLEEACVIHRDLAARNCLVGENQVIKVSDFGMTRFVLDDQYTSSTGTKFPVKWASPEVFSFSRYSSKSDVWSFGVLMWEVFSEGKIPYENRSNSEVVEDISTGFRLYKPRLASTHVYQIMNHCWKERPEDRPAFSRLLRQLAEIAESGL
In the case of B5, the Signal to Noise ratio with BRB1 Peptide (TR-FRET kinase assay; kinase 0.5 nM) amounted to 8.4.

B6: FRK (protein)
chain: MSNICQRLWEYLEPYLPCLSTEADKSTVIENPGALCSPQSQRHGHYFVALFDYQARTAEDLSFRAGDKLQVLDTLHEGWWFARHLEKRRDGSSQQLQGYIPSNYVAEDRSLQAEPWFFGAIGRSDAEKQLLYSENKTGSFLIRESESQKGEFSLSVLDGAVVKHYRIKRLDEGGFFLTRRRIFSTLNEFVSHYTKTSDGLCVKLGKPCLKIQVPAPFDLSYKTVDQWEIDRNSIQLLKRLGSGQFGEVWEGLWNNTTPVAVKTLKPGSMDPNDFLREAQIMKNLRHPKLIQLYAVCTLEDPIYIITELMRHGSLQEYLQNDTGSKIHLTQQVDMAAQVASGMAYLESRNYIHRDLAARNVLVGEHNIYKVADFGLARVFKVDNEDIYESRHEIKLPVKWTAPEAIRSNKFSIKSDVWSFGILLYEIITYGKMPYSGMTGAQVIQMLAQNYRLPQPSNCPQQFYNIMLECWNAEPKERPTFETLRWKLEDYFETDSSYSDANNFIR
With B6, the Signal to Noise ratio with BRB1 Peptide (TR-FRET kinase assay; kinase 0.5 nM) is 9.7.

B7: FER (protein)
chain: KSGVVLLNPIPKDKKWILSHEDVILGELLGKGNFGEVYKGTLKDKTSVAVKTCKEDLPQELKIKFLQEAKILKQYDHPNIVKLIGVCTQRQPVYIIMELVSGGDFLTFLRRKKDELKLKQLVKFSLDAAAGMLYLESKNCIHRDLAARNCLVGENNVLKISDFGMSRQEDGGVYSSSGLKQIPIKWTAPEALNYGRYSSESDVWSFGILLWETFSLGVCPYPGMTNQQAREQVERGYRMSAPQHCPEDISKIMMKCWDYKPENRPKFSELQKELTIIKRKLT
As for B7, the Signal to Noise ratio with BRB1 Peptide (TR-FRET kinase assay; kinase 0.25 nM) was 31.

B8: FES (protein)
chain: MGFSSELCSPQGHGVLQQMQEAELRLLEGMRKWMAQRVKSDREYAGLLHHMSLQDSGGQSRAISPDSPISQSWAEITSQTEGLSRLLRQHAEDLNSGPLSKLSLLIRERQQLRKTYSEQWQQLQQELTKTHSQDIEKLKSQYRALARDSAQAKRKYQEASKDKDRDKAKDKYVRSLWKLFAHHNRYVLGVRAAQLHHQHHHQLLLPGLLRSLQDLHEEMACILKEILQEYLEISSLVQDEVVAIHREMAAAAARIQPEAEYQGFLRQYGSAPDVPPCVTFDESLLEEGEPLEPGELQLNELTVESVQHTLTSVTDELAVATEMVFRRQEMVTQLQQELRNEEENTHPRERVQLLGKRQVLQEALQGLQVALCSQAKLQAQQELLQTKLEHLGPGEPPPVLLLQDDRHSTSSSEQEREGGRTPTLEILKSHISGIFRPKFSLPPPLQLIPEVQKPLHEQLWYHGAIPRAEVAELLVHSGDFLVRESQGKQEYVLSVLWDGLPRHFIIQSLDNLYRLEGEGFPSIPLLIDHLLSTQQPLTKKSGVVLHRAVPKDKWVLNHEDLVLGEQIGRGNFGEVFSGRLRADNTLVAVKSCRETLPPDLKAKFLQEARILKQYSHPNIVRLIGVCTQKQPIYIVMELVQGGDFLTFLRTEGARLRVKTLLQMVGDAAAGMEYLESKCCIHRDLAARNCLVTEKNVLKISDFGMSREEADGVYAASGGLRQVPVKWTAPEALNYGRYSSESDVWSFGILLWETFSLGASPYPNLSNQQTREFVEKGGRLPCPELCPDAVFRLMEQCWAYEPGQRPSFSTIYQELQSIRKRHR
Turning to B8, the Signal to Noise Ratio with BRB1 Peptide (TR-FRET kinase assay; kinase 1 nM) is 24.9.
